# According to IntAct's records for PubMed 20952573:
# B1: Transcriptional regulatory protein RcsB (Escherichia coli (strain K12)), P0DMC7 (parent)
# chain: MNNMNVIIADDHPIVLFGIRKSLEQIEWVNVVGEFEDSTALINNLPKLDAHVLITDLSMPGDKYGDGITLIKYIKRHFPSLSIIVLTMNNNPAILSAVLDLDIEGIVLKQGAPTDLPKALAALQKGKKFTPESVSRLLEKISAGGYGDKRLSPKESEVLRLFAEGFLVTEIAKKLNRSIKTISSQKKSAMMKLGVENDIALLNYLSSVTLSPADKD
# partner: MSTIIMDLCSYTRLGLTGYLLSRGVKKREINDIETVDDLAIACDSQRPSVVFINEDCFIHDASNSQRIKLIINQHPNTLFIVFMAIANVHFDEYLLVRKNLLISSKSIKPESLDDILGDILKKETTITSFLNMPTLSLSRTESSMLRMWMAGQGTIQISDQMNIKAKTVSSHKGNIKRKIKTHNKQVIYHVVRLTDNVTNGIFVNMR
# Variants of: B1
# Conditions: with rcsa_ecoli rcsA
row,Variant,effect of a mutation on the interaction
1,MNNMNVIIADDHPIVLFGIRKSLEQIEWVNVVGEFEDSTALINNLPKLDAHVLITELSMPGDKYGDGITLIKYIKRHFPSLSIIVLTMNNNPAILSAVLDLDIEGIVLKQGAPTDLPKALAALQKGKKFTPESVSRLLEKISAGGYGDKRLSPKESEVLRLFAEGFLVTEIAKKLNRSIKTISSQKKSAMMKLGVENDIALLNYLSSVTLSPADKD [D56E],decreasing interaction
